Test results taken from article PMC11062913, “Structural basis of Integrator-dependent RNA polymerase II termination” (Nature, 2024).

Target: T1, Integrator subunit INTS11(E203Q) (human, UniProt Q5TA45 1-600, E203Q)
T1 construct: INTS11, human; endonuclease subunit of the Integrator cleavage module; E203Q mutant with reduced catalytic activity used in all complexes for cryo-EM and XL-MS; Stood in the assays as a subunit of the Integrator–PP2A complex; also called INTS11(E203Q) mutant
Assay: cross-linking; XL-MS of the PEC–Integrator–PP2A–SOSS complex (mixed population of pre- and post-termination complexes): pooled glycerol-gradient peak fractions, 3 mM BS3, 30 min, 30 °C
Settings: both partners purified

binding result: binds
B1: NABP2 (natural protein, human, UniProt Q9BQ15-1 1-211, looked up)
chain: MTTETFVKDIKPGLKNLNLIFIVLETGRVTKTKDGHEVRTCKVADKTGSINISVWDDVGNLIQPGDIIRLTKGYASVFKGCLTLYTGRGGDLQKIGEFCMVYSEVPNFSEPNPEYSTQQAPNKAVQNDSNPSASQPTTGPSAASPASENQNGNGLSAPPGPGGGPHPPHTPSHPPSTRITRSQPNHTPAGPPGPSSNPVSNGKETRRSSKR
notes: Treated with lambda protein phosphatase during purification; also called SOSS factor NABP2
